Laboratory results: patent publication US20240002464A1 (published 2024)

Target: T1, HPV16 E6 peptide on HLA-A*02:01 (human)
T1 peptide: TIHDIILECV
Assay: Kd or kinetics
Experimental: In this example, the binding activity of the soluble TCR molecule obtained according to Example 2 to the […]-HLA A0201 complex was tested using a BIAcore T200 real-time analysis system. The […]-HLA A0201 complex was prepared by methods well known to those skilled in the art, mainly including purification, renaturation, repurification, and biotinylation. The anti-streptavidin antibody (GenScript) was added to the coupling buffer (10 mM sodium acetate buffer, pH 4.77), and then the antibody was passed through a CMS chip previously activated with EDC and NHS so that the antibody was immobilized on the chip surface, and finally the unreacted activated surface was blocked with a solution of ethanolamine in hydrochloric acid to complete the coupling. The coupling was at a level of about 15,000 RU. A low concentration of streptavidin was allowed to flow through the surface of the chip coated with the antibody, then the […]-HLA A0201 complex was allowed to flow through a detection channel, with the other channel serving as a reference channel. Then 0.05 mM of biotin was allowed to flow through the chip at a flow rate of 10 μL/min for 2 minutes, blocking the remaining binding site for streptavidin.
The kinetic parameters were calculated using the BIAcore Evaluation software to obtain the binding kinetic profiles of the soluble TCR molecules of the present disclosure binding to the […]-HLA A0201 complex, respectively, as shown in FIGS. 7a-7d. […] Also, the binding activity of the soluble TCR molecule of the present disclosure to several complexes of other unrelated antigen short peptides and HLA was also tested by the method.

B1: TCR1 (TCR, V domains shown)
Valpha: AQKVTQAQTEISVVEKEDVTLDCVYETRDTTYYLFWYKQPPSGELVFLIRRNSFDEQNEISGRYSWNFQKSTSSFNFTITASQVVDSAVYFCALRAGANNLFFGTGTRLTVIP
Vbeta: NAGVTQTPKFQVLKTGQSMTLQCAQDMNHNSMYWYRQDPGMGLRLIYYSASEGTTDKGEVPNGYNVSRLNKREFSLRLESAAPSQTSVYFCASGPWGSSGNTIYFGEGSWLTVV
binding result: recognises

B2: TCR3 (TCR, V domains shown)
Valpha: AQKVTQAQTEISVVEKEDVTLDCVYETRDTTYYLFWYKQPPSGELVFLIRRNSFDEQNEISGRYSWNFQKSTSSFNFTITASQVVDSAVYFCALRAGANTPIFGTGTRLTVIP
Vbeta: NAGVTQTPKFQVLKTGQSMTLQCAQDMNHNSMYWYRQDPGMGLRLIYYSASEGTTDKGEVPNGYNVSRLNKREFSLRLESAAPSQTSVYFCASGPWGSSGNTIYFGEGSWLTVV
binding result: recognises

B3: TCR2 (TCR, V domains shown)
Valpha: AQKVTQAQTEISVVEKEDVTLDCVYETRDTTYYLFWYKQPPSGELVFLIRRNSFDEQNEISGRYSWNFQKSTSSFNFTITASQVVDSAVYFCALRAGANLPVFGTGTRLTVIP
Vbeta: NAGVTQTPKFQVLKTGQSMTLQCAQDMNHNSMYWYRQDPGMGLRLIYYSASEGTTDKGEVPNGYNVSRLNKREFSLRLESAAPSQTSVYFCASGPWGSSGNTIYFGEGSWLTVV
binding result: recognises

B4: TCR4 (TCR, V domains shown)
Valpha: AQKVTQAQTEISVVEKEDVTLDCVYETRDTTYYLFWYKQPPSGELVFLIRRNSFDEQNEISGRYSWNFQKSTSSFNFTITASQVVDSAVYFCALRAGAWPMKFGTGTRLTVIP
Vbeta: NAGVTQTPKFQVLKTGQSMTLQCAQDMNHNSMYWYRQDPGMGLRLIYYSASEGTTDKGEVPNGYNVSRLNKREFSLRLESAAPSQTSVYFCASGPWGSSGNTIYFGEGSWLTVV
binding result: recognises
